Results on 22 sequences are retold here after the supplement of paper PMC11780869.

This data set concerns Bacillus subtilis. Put plainly: cleaved RNA product abundance (RNA/gDNA barcode ratio) relative to median wild-type variant (ratio to wild type); higher = more accumulation of the downstream cleavage product. The settings on record: cleavage site: cggR-gapA (positions -7 to +36 mutated). The gist of the method:
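The B. subtilis chromosome carried reporter mRNAs, truncated aprE or tetM, containing barcoded RNase Y cleavage-site windows mutagenized using oligos with a 9% error rate. After growth in LB at 37°C from OD600 0.0003 to 0.3, cleaved RNA was gel-selected, reverse transcribed and barcode-sequenced next to genomic DNA barcodes, with UMI collapsing. Each construct's RNA:gDNA barcode ratio was scaled to the median construct with the unmutated site. That scaled ratio is reported as cleaved product abundance.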

Where [1] appears, read: experiment (reporter, strain, medium): exp 2b: truncated aprE reporter, strain BJT200.
Where [2] appears, read: experiment (reporter, strain, medium): exp 4a: truncated aprE reporter, strain BJT201 with 2% xylose (RNase J1 expressed).

For the sequence “ACAGACGAAGGAGCCGCAAAGAAGTTATAAAGGGATGAATAAACCCTCAATATAAATATCTCTCACTTATTTAAA”, the “cleaved RNA product abundance” value amounted to 0.145 under setting [1] and 0.197 under setting [2]. Turning to “ACAGACGAAGGAGCCGCAAAGAAGTTATAAAGGGATGAATAACCCCTCAATATAAATATCTCTCACTTATTTAAA”, the “cleaved RNA product abundance” value under setting [2] is 0.261. The same measure, in the same setting: the figure for “ACAGACGAAGGAGCCGCAAAGAAGTTATAAAGGGATGAATAAGCCCTCAATATAAATATCTCTCACTTATTTAAA” is 0.172.

Take “ACAGACGAAGGAGCCGCAAAGAAGTTATAAAGGGATGAATAATCACTCAATATAAATATCTCTCACTTATTTAAA”: the “cleaved RNA product abundance” value under setting [1] turned out to be 0.107 and the “cleaved RNA product abundance” value under setting [2] came out at 0.169.

Take “ACAGACGAAGGAGCCGCAAAGAAGTTATAAAGGGATGAATAATCCATCAATATAAATATCTCTCACTTATTTAAA”: under setting [2], the “cleaved RNA product abundance” value amounted to 0.26. Turning to “ACAGACGAAGGAGCCGCAAAGAAGTTATAAAGGGATGAATAATCCCACAATATAAATATCTCTCACTTATTTAAA”, the “cleaved RNA product abundance” value was found to be 0.175 under setting [1] and 0.183 under setting [2]. In the case of “ACAGACGAAGGAGCCGCAAAGAAGTTATAAAGGGATGAATAATCCCTAAATATAAATATCTCTCACTTATTTAAA”, the “cleaved RNA product abundance” value under setting [2] stood at 0.626.

Consider “ACAGACGAAGGAGCCGCAAAGAAGTTATAAAGGGATGAATAATCCCTCAAAATAAATATCTCTCACTTATTTAAA”, for which the “cleaved RNA product abundance” value under setting [2] worked out at 0.292.

For “ACAGACGAAGGAGCCGCAAAGAAGTTATAAAGGGATGAATAATCCCTCAACATAAATATCTCTCACTTATTTAAA”, under setting [2], the “cleaved RNA product abundance” value was found to be 0.304. In the case of “ACAGACGAAGGAGCCGCAAAGAAGTTATAAAGGGATGAATAATCCCTCAATAAAAATATCTCTCACTTATTTAAA”, the “cleaved RNA product abundance” value under setting [1] is 0.125 and the “cleaved RNA product abundance” value under setting [2] is 0.0461. “ACAGACGAAGGAGCCGCAAAGAAGTTATAAAGGGATGAATAATCCCTCAATATAAAAATCTCTCACTTATTTAAA”: the “cleaved RNA product abundance” value under setting [1] was found to be 0.338. For “ACAGACGAAGGAGCCGCAAAGAAGTTATAAAGGGATGAATAATCCCTCAATATAAATAACTCTCACTTATTTAAA”, the “cleaved RNA product abundance” value under setting [2] is 0.424. With “ACAGACGAAGGAGCCGCAAAGAAGTTATAAAGGGATGAATAATCCCTCAATATAAATATATCTCACTTATTTAAA”, the “cleaved RNA product abundance” value under setting [2] was 0.419. For the sequence “ACAGACGAAGGAGCCGCAAAGAAGTTATAAAGGGATGAATAATCCCTCAATATAAATATCTCTCACTTATTTAAA”, the “cleaved RNA product abundance” value runs as follows: under setting [1], 0.363; under setting [2], 0.454; (experiment (reporter, strain, medium): exp 6: tetM reporter, strain 168) 0.4. As for “ACAGACGAAGGAGCCGCAAAGAAGTTATAAAGGGATGAATAATCCCTCAATATAAATATTTCTCACTTATTTAAA”, the “cleaved RNA product abundance” value under setting [2] was determined as 0.51.

On to “ACAGACGAAGGAGCCGCAAAGAAGTTATAAAGGGATGAATAATCCCTCAATATAAATTTCTCTCACTTATTTAAA”, for which the “cleaved RNA product abundance” value under setting [2] was found to be 0.387. Still for that read-out and setting: with “ACAGACGAAGGAGCCGCAAAGAAGTTATAAAGGGATGAATAATCCCTCAATATAATTATCTCTCACTTATTTAAA” the figure was 0.171. For the sequence “ACAGACGAAGGAGCCGCAAAGAAGTTATAAAGGGATGAATAATCCCTCAATATAGATATCTCTCACTTATTTAAA”, the “cleaved RNA product abundance” value under setting [1] came out at 0.19 and the “cleaved RNA product abundance” value under setting [2] stood at 0.475.

With “ACAGACGAAGGAGCCGCAAAGAAGTTATAAAGGGATGAATAATCCCTCAATATATATATCTCTCACTTATTTAAA”, the “cleaved RNA product abundance” value is, setting by setting: under setting [1], 0.359; under setting [2], 0.58. On to “ACAGACGAAGGAGCCGCAAAGAAGTTATAAAGGGATGAATAATCCCTCAATATTAATATCTCTCACTTATTTAAA”, for which the “cleaved RNA product abundance” value under setting [2] was determined as 0.105. For the sequence “ACAGACGAAGGAGCCGCAAAGAAGTTATAAAGGGATGAATAATCCCTCAATTTAAATATCTCTCACTTATTTAAA”, the “cleaved RNA product abundance” value was 0.146 under setting [1] and 0.152 under setting [2]. For “ACAGACGAAGGAGCCGCAAAGAAGTTATAAAGGGATGAATAATCCCTCACTATAAATATCTCTCACTTATTTAAA”, the “cleaved RNA product abundance” value under setting [2] came to 0.322.
